# T1: adenosine A1 receptor fused to Renilla luciferase (A1R-Rluc) (UniProt P30542 1-326)
# T1 sequence (looked up): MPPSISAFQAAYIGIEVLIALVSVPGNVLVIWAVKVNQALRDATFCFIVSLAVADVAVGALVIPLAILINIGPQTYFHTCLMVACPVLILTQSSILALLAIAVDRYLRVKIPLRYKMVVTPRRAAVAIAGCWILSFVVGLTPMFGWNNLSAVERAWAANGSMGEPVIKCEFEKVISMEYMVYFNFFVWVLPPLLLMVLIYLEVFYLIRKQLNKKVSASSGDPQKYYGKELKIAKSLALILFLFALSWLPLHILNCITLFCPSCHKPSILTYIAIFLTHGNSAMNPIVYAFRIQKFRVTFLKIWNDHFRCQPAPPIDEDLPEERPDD
# Molecular target: T1, adenosine A1 receptor fused to Renilla …
# Test: FRET or BRET
binder,measurement,value
"dopamine D1 receptor fused to YFP (D1R-YFP) (receptor, UniProt P21728 1-446, looked up) MRTLNTSAMDGTGLVVERDFSVRILTACFLSLLILSTLLGNTLVCAAVIRFRHLRSKVTNFFVISLAVSDLLVAVLVMPWKAVAEIAGFWPFGSFCNIWVAFDIMCSTASILNLCVISVDRYWAISSPFRYERKMTPKAAFILISVAWTLSVLISFIPVQLSWHKAKPTSPSDGNATSLAETIDNCDSSLSRTYAISSSVISFYIPVAIMIVTYTRIYRIAQKQIRRIAALERAAVHAKNCQTTTGNGKPVECSQPESSFKMSFKRETKVLKTLSVIMGVFVCCWLPFFILNCILPFCGSGETQPFCIDSNTFDVFVWFGWANSSLNPIIYAFNADFRKAFSTLLGCYRLCPATNNAIETVSINNNGAAMFSSHHEPRGSISKECNLVYLIPHAVGSSEDLKKEEAAGIARPLEKLSPALSVILDYDTDVSLEKIQPITQNGQHPT",BRET50,2 ± 1 YFP/Rluc ratio

# — PMC6252157 (Molecular neurobiology, 2018)
